These are literature values, as cited in PMC4404502.

This data set has as its target Asp11 (position 11, …). As to the kind of experiment: fluorescence. The note with it: membrane-inserted helix.

As usually defined, the pKa is the negative logarithm of the acid dissociation constant. On to KKGLLLLLLLDLWLLLLLLLLLKKA [pL(D11) poly-Leu transmembrane model peptide (synthetic construct)], for which the pKa is recorded as 8.7.
